Target: FITC-labeled 45-mer peptide derived from the C-terminal region of IKKβ (FITC label (position not given))
Assay: fluorescence polarisation; fluorescence anisotropy binding assay with an FITC-labeled 45-mer peptide of IKKβ and bacterially expressed full-length NEMO proteins; conditions not told here (refs 13, 26)
Conditions: both partners purified

B1: 7XAla-NEMO (aa 1-419), bacterially expressed (natural protein)
chain: MNRHLWKSQLAEMVQPSGGPAADQDVLGEESPLGKPAMLHLPSEQGAPETLQRALEENQELRDAIRQSNQILRERAEELLHFQASQREEKEFLMAKFQEARKLVERLGLEKLDLKRQKEQALREVEHLKRAQQQMAEDKASVKAQVTSLLGELQESQSRLEAATKEAQALEGRARAASEQARQLESEREALQQQHSVQVDQLRMQGQSVEAALRMERQAASEEKRKLAQLQVAYHQLFQEYDNHIKSSVVGSERKRGMQLEDLKQQLQQAEEALVAKQEVIDKLKEEAEQHKIVMETVPVLKAQADIYKADFQAERQAREKLAEKKELLQEQLEQLQREYSKLKASAQESARIEDMRKRHVEVSQAPLPPAPAYLSSPLALPSQRRSPPEEPPDFCCPKCQYQAPDMDTLQIHVMECIE
B1 was tested, and the Kd was 13 ± 2.9 nM.

Source: publication PMC10694592, “A conserved core region of the scaffold NEMO is essential for signal-induced conformational change and liquid-liquid phase separation” (The Journal of Biological Chemistry, 2023)
